B1: CPOX (parent)
chain: HAPTIHFNYRYFEVEEADGNKQWW
B2: INTS3 (parent)
chain: AQLQALRQKEVDFCISLLRERFME

Variants of: B1
Experiment: protein stability index of a GFP-peptide fusion (GPS, HEK-293T) (PSI 1-6); higher = more stable
Conditions: c terminus: a fixed tail appended
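Also: lentivirally expressed fusions sorted by FACS into six bins by GFP to DsRed ratio, PSI derived from sequencing read proportions per bin multiplied by bin number.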

First: HAPTIHFNYRYFEVEEADGNKQWC [W24C]
Second: HAPTIHFNYRYFEVEEADGNKQWD [W24D]
The protein stability index of the first is lower: 2.63 for the first, 3.82 for the second.

First: HAPTIHFNYRYFEVEEADGNKQWE [W24E]
Second: HAPTIHFNYRYFEVEEADGNKQWF [W24F]
The protein stability index of the first is higher: 3.06 for the first, 2.69 for the second.

Compared with HAPTIHFNYRYFEVEEADGNKQWG [W24G], HAPTIHFNYRYFEVEEADGNKQWH [W24H] is higher in protein stability index: 2.81 for the first, 3.03 for the second.

Compared with HAPTIHFNYRYFEVEEADGNKQWI [W24I], HAPTIHFNYRYFEVEEADGNKQWK [W24K] is lower in protein stability index: 3.35 for the first, 3.24 for the second.

First: HAPTIHFNYRYFEVEEADGNKQWL [W24L]
Second: HAPTIHFNYRYFEVEEADGNKQWM [W24M]
The protein stability index of the first is lower: 2.66 for the first, 3.4 for the second.

First: HAPTIHFNYRYFEVEEADGNKQWN [W24N]
Second: HAPTIHFNYRYFEVEEADGNKQWP [W24P]
The protein stability index of the first is higher: 3.06 for the first, 2.91 for the second.

Compared with HAPTIHFNYRYFEVEEADGNKQWQ [W24Q], HAPTIHFNYRYFEVEEADGNKQWR [W24R] is higher in protein stability index: 2.34 for the first, 3.11 for the second.

Going from HAPTIHFNYRYFEVEEADGNKQWS [W24S] to HAPTIHFNYRYFEVEEADGNKQWT [W24T], the protein stability index falls from 2.91 to 2.86.

Going from HAPTIHFNYRYFEVEEADGNKQWV [W24V] to HAPTIHFNYRYFEVEEADGNKQWY [W24Y], the protein stability index falls from 3.1 to 2.51.

Variants of: B2
Experiment: as above
Conditions: c terminus: a fixed tail appended

Going from AQLQALRQKEVDFCISLLRERFMG [E24G] to AQLQAVRQKEVDFCISLLRERFME [L6V], the protein stability index rises from 1.92 to 2.98.

First: AQLQARRQKEVDFCISLLRERFME [L6R]
Second: AQLQALRQKEVDFCISLVRERFME [L18V]
The protein stability index of the first is lower: 2.02 for the first, 3.22 for the second.

Compared with AQPQALRQKEVDFCISLLRERFME [L3P], AQLQALRQKEVDFCISLHRERFME [L18H] is higher in protein stability index: 1.62 for the first, 1.76 for the second.

Compared with AQLQALRQKEVDFCIYLLRERFME [S16Y], AQLQALRQKEVDFCISLLRELFME [R21L] is lower in protein stability index: 3.56 for the first, 2.34 for the second.

First: AQLQALRQKEVFFCISLLRERFME [D12F]
Second: GQLQALRQKEVDFCISLLRERFME [A1G]
The protein stability index of the first is lower: 1.05 for the first, 2.93 for the second.

First: AQLQALRQKEVDFCISLLREEFME [R21E]
Second: AQLDALRQKEVDFCISLLRERFME [Q4D]
The protein stability index of the first is higher: 2.1 for the first, 2.04 for the second.

Compared with AQLQALRSKEVDFCISLLRERFME [Q8S], AQLQALRQKEVDFCESLLRERFME [I15E] is lower in protein stability index: 3.06 for the first, 2.34 for the second.

Compared with AQLQALRQKEDDFCISLLRERFME [V11D], AQLQADRQKEVDFCISLLRERFME [L6D] is lower in protein stability index: 2.49 for the first, 1.96 for the second.

Going from ANLQALRQKEVDFCISLLRERFME [Q2N] to AQNQALRQKEVDFCISLLRERFME [L3N], the protein stability index falls from 3.27 to 1.55.

Going from AQLQALRQKEVDFCLSLLRERFME [I15L] to AQLQALRQKEVDMCISLLRERFME [F13M], the protein stability index falls from 2.84 to 2.52.

Going from AQHQALRQKEVDFCISLLRERFME [L3H] to EQLQALRQKEVDFCISLLRERFME [A1E], the protein stability index rises from 1.41 to 2.65.

First: AQTQALRQKEVDFCISLLRERFME [L3T]
Second: AQLQALRQKEVDECISLLRERFME [F13E]
The protein stability index of the first is lower: 1.44 for the first, 1.66 for the second.

Compared with AQLQALRQREVDFCISLLRERFME [K9R], AQLQALRAKEVDFCISLLRERFME [Q8A] is higher in protein stability index: 2.32 for the first, 2.62 for the second.

Compared with APLQALRQKEVDFCISLLRERFME [Q2P], AQLQALRQKEVCFCISLLRERFME [D12C] is higher in protein stability index: 2.38 for the first, 3.46 for the second.

First: AQLQALRQKEVDFCISLLRERCME [F22C]
Second: AQLQALRQKEVDFCISLLREHFME [R21H]
The protein stability index of the first is lower: 1.19 for the first, 2.91 for the second.

Compared with AQLQALRQKEVDFCILLLRERFME [S16L], AQCQALRQKEVDFCISLLRERFME [L3C] is lower in protein stability index: 1.85 for the first, 1.76 for the second.

Going from AQLQALRQKEVDVCISLLRERFME [F13V] to AQLTALRQKEVDFCISLLRERFME [Q4T], the protein stability index rises from 2.7 to 3.02.

Going from AQLQALRQKEVDFCISLCRERFME [L18C] to AQLQALRQKEVDFCISLLRERFMN [E24N], the protein stability index rises from 1.02 to 2.72.

First: AQLQALRLKEVDFCISLLRERFME [Q8L]
Second: PQLQALRQKEVDFCISLLRERFME [A1P]
The protein stability index of the first is lower: 1.78 for the first, 3.68 for the second.

First: AQLQALRQKEVDFGISLLRERFME [C14G]
Second: AQLQALRQKEVDFCISLLREFFME [R21F]
The protein stability index of the first is higher: 1.84 for the first, 1.36 for the second.

Going from AQLQALRQKEVLFCISLLRERFME [D12L] to AQLQAARQKEVDFCISLLRERFME [L6A], the protein stability index falls from 2.47 to 2.13.

First: AQLQALRQKWVDFCISLLRERFME [E10W]
Second: AQLQALPQKEVDFCISLLRERFME [R7P]
The protein stability index of the first is lower: 1.53 for the first, 2.23 for the second.

Going from AQLQALRQKEVDFCISLLRERFLE [M23L] to AQLQALRQKEVDFCISLLRECFME [R21C], the protein stability index rises from 2.29 to 2.58.

Going from AQLQALRQKEVDGCISLLRERFME [F13G] to AQLQALRDKEVDFCISLLRERFME [Q8D], the protein stability index rises from 2 to 2.83.

Going from AQLQALRQYEVDFCISLLRERFME [K9Y] to AQLQELRQKEVDFCISLLRERFME [A5E], the protein stability index falls from 3.51 to 2.24.

Compared with AQLQAHRQKEVDFCISLLRERFME [L6H], AQLQALRQKEVDFHISLLRERFME [C14H] is lower in protein stability index: 2.11 for the first, 1.94 for the second.

Compared with AQLQNLRQKEVDFCISLLRERFME [A5N], AQLQALRQKEVDFCISLLREMFME [R21M] is lower in protein stability index: 2.61 for the first, 2.09 for the second.

First: AQLQALRQKEVDFCIILLRERFME [S16I]
Second: AQLQALRQKEVPFCISLLRERFME [D12P]
The protein stability index of the first is higher: 2.38 for the first, 2.05 for the second.

Going from AQLQALRQKEVQFCISLLRERFME [D12Q] to AQLQALRQKEVDRCISLLRERFME [F13R], the protein stability index falls from 2.12 to 1.27.

First: AQLQALRQKEVNFCISLLRERFME [D12N]
Second: AQSQALRQKEVDFCISLLRERFME [L3S]
The protein stability index of the first is lower: 1.59 for the first, 1.76 for the second.

First: AQLQALRQKEVDFCISLLRETFME [R21T]
Second: AQLQALRQKEVDFCMSLLRERFME [I15M]
The protein stability index of the first is higher: 3.99 for the first, 1.17 for the second.

Compared with AQLQALRQFEVDFCISLLRERFME [K9F], AQLQALRQKKVDFCISLLRERFME [E10K] is lower in protein stability index: 2.45 for the first, 2.2 for the second.

First: AQLQALRQKEVDFCISLLRDRFME [E20D]
Second: AWLQALRQKEVDFCISLLRERFME [Q2W]
The protein stability index of the first is higher: 2.65 for the first, 2.42 for the second.

Compared with AQLQALRQKEADFCISLLRERFME [V11A], AQLQALRQKEVDFCISLLRERFVE [M23V] is higher in protein stability index: 2.23 for the first, 5.11 for the second.

Going from AQLQALRQKEVDFDISLLRERFME [C14D] to AQLAALRQKEVDFCISLLRERFME [Q4A], the protein stability index rises from 2.03 to 3.65.

Going from AQLQALRQKEVDFEISLLRERFME [C14E] to AQLQALRQKEVDFCISLDRERFME [L18D], the protein stability index rises from 1.75 to 2.38.

Compared with AGLQALRQKEVDFCISLLRERFME [Q2G], AQLQALRQKEVDFCIPLLRERFME [S16P] is lower in protein stability index: 3.4 for the first, 2.14 for the second.

Going from AQLQALRQKEVDFCISLLDERFME [R19D] to AQLQALRQKEVIFCISLLRERFME [D12I], the protein stability index rises from 1.57 to 1.91.

Reference: the supplement of paper PMC10567573
